# From patent US20040086988
# Tests used:
# [1] = system: L-fluorogenic substrate 2-aminobenzoyl-Thr-Ile-Nle-Phe(p-NO2)-Gln-Arg.amide
# [2] = system: D-isomer of the substrate Ac-Thr-Ile-Nle-Nle-Gln-Arg.amide
# [3] = system: L-isomer of the substrate Ac-Thr-Ile-Nle-Nle-Gln-Arg.amide
# [4] = system: D-fluorogenic substrate 2-aminobenzoyl-Thr-Ile-Nle-Phe(p-NO2)-Gln-Arg.amide
Substance,"cleavage of the chiral fluorogenic substrate (fluorogenic assay, corresponding chiral substrate) [1]","cleavage of hexapeptide substrate (RP HPLC, products identified by ion spray MS) [2]","cleavage of hexapeptide substrate (RP HPLC, products identified by ion spray MS) [3]",cleavage of fluorogenic substrate (increase in fluorescence) [1],cleavage of fluorogenic substrate (increase in fluorescence) [4],"cleavage of the chiral fluorogenic substrate (fluorogenic assay, corresponding chiral substrate) [4]"
L-[Aba^67.95(CO-S)^51-52]2 HIV-1 PR,the cleavage of chiral fluorogenic substrates by the D- and L-HIV-1 PR analogues,is inactive towards the D-substrate,the L-enzyme shows full activity towards the L-substrate,–,–,–
D-[Aba^67.95.167.195]HIV-1 protease (HIV-1 PR),–,–,–,the D-enzyme cleaved only the corresponding D-substrate (L-substrate not cleaved),the D-enzyme cleaved only the corresponding D-substrate,–
D-[Aba^67.95(CO-S)^51-52]2 HIV-1 PR,–,The D-enzyme cleaves only the D-substrate,is inactive on the L-substrate,–,–,the cleavage of chiral fluorogenic substrates by the D- and L-HIV-1 PR analogues
L-[Aba^67.95.167.195]HIV-1 protease (HIV-1 PR),–,–,–,the L-enzyme cleaved only the L-substrate,the L-enzyme cleaved only the L-substrate (D-substrate not cleaved),–
